This experiment has as its target Human endothelial cells (ECV304). Nature of the experiment: inhibition of endothelial cell adhesion to pepsinized collagen type IV by soluble monomer.

Substance “recombinant human type IV collagen NCl (α1) monomer (from UniProt P02462)” had a percent inhibition of cell adhesion of 50%.

For the substance “recombinant type IV collagen NCl (α2) monomer (from UniProt P08572)”, the percent inhibition of cell adhesion worked out at 50%.

Values taken from US20040132662A1.
